Test [1] has as its target T1, hCA-IX fragment 2 (aa 38-136, +PG+) displayed on yeast as Aga2-HA-CA9-MYC (pPNL6), clone 2B (human, UniProt P32781 19-87; Q16790 38-136).
T1 construct: not shown: HA tag; MYC tag
In words: YSD whole yeast cell ELISA, native.

Test [2] addresses T2, rhCA-IV (human, UniProt P22748 19-283, limits assumed).
T2 construct: Bought; construct not described; also called recombinant human CA-IV
In words: SPR, antibody captured by anti-human Fc. In general terms: SPR reads the build-up and loss of mass on a sensor chip optically.

Test [3] deals with T3, rhCA-XII (human, UniProt O43570 25-291, limits assumed).
T3 construct: Bought; construct not described; also called recombinant human CA-XII (Sino Biologics)
In words: SPR, antibody captured by anti-human Fc.

Test [4] concerns the target T4, rhCA-XIV (human, UniProt Q9ULX7 16-290, limits assumed).
T4 construct: Bought; construct not described; also called recombinant human CA-XIV
In words: SPR, antibody captured by anti-human Fc.

In test [5] the target is T5, rmCA-IX (murine, UniProt Q8VHB5 32-389, limits assumed).
T5 construct: Bought; construct not described; also called recombinant murine (rm)CA-IX
In words: SPR, antibody captured by anti-human Fc.

The target in test [6] is T6, hCA-IX PG domain fragment #1 (aa 37-51) displayed on yeast as Aga2-HA-CA9-MYC (pPNL6), clone 1 A + B (human, UniProt P32781 19-87 (Saccharomyces cerevisiae entry)).
T6 construct: not shown: HA tag; MYC tag
In words: YSD whole yeast cell ELISA, native PG tiling fragment.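 Further: monoclonal antibody binding to intact yeast cells displaying the fragment, read by ELISA, with the anti-CA-IX signal normalized against the anti-MYC display signal.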 A general note: In an ELISA, binding on a coated surface is turned into a signal by an enzyme label.

Test [7] concerns the target T7, hCA-IX PG domain fragment #2 (aa 47-61) displayed on yeast as Aga2-HA-CA9-MYC (pPNL6), clone 2 A + B (human, UniProt P32781 19-87 (Saccharomyces cerevisiae entry)).
T7 construct: not shown: HA tag; MYC tag
Described as above.

The target of test [8] is T8, hCA-IX PG domain fragment #3 (aa 57-71) displayed on yeast as Aga2-HA-CA9-MYC (pPNL6), clone 3 A + B (human, UniProt P32781 19-87 (Saccharomyces cerevisiae entry)).
T8 construct: not shown: HA tag; MYC tag
The test is described as above.

Test [9] concerns the target T9, hCA-IX PG domain fragment #4 (aa 67-81) displayed on yeast as Aga2-HA-CA9-MYC (pPNL6), clone 4 A + B (human, UniProt P32781 19-87 (Saccharomyces cerevisiae entry)).
T9 construct: not shown: HA tag; MYC tag
Described as above.

In test [10] the target is T10, hCA-IX PG domain fragment #5 (aa 77-91) displayed on yeast as Aga2-HA-CA9-MYC (pPNL6), clone 5 A + B (human, UniProt P32781 19-87 (Saccharomyces cerevisiae entry)).
T10 construct: not shown: HA tag; MYC tag
The test is described as above.

Test [11] concerns the target T11, hCA-IX PG domain fragment #6 (aa 87-101) displayed on yeast as Aga2-HA-CA9-MYC (pPNL6), clone 6 A + B (human, UniProt P32781 19-87 (Saccharomyces cerevisiae entry)).
T11 construct: not shown: HA tag; MYC tag
Described as above.

The target in test [12] is T12, hCA-IX PG domain fragment #7 (aa 97-111) displayed on yeast as Aga2-HA-CA9-MYC (pPNL6), clone 7 A + B (human, UniProt P32781 19-87 (Saccharomyces cerevisiae entry)).
T12 construct: not shown: HA tag; MYC tag
The test is described as above.

Test [13] deals with T13, hCA-IX PG domain fragment #8 (aa 107-121) displayed on yeast as Aga2-HA-CA9-MYC (pPNL6), clone 8 A + B (human, UniProt P32781 19-87 (Saccharomyces cerevisiae entry)).
T13 construct: not shown: HA tag; MYC tag
The test is described as above.

For test [14], the target named is T14, hCA-IX PG domain fragment #9 (aa 117-131) displayed on yeast as Aga2-HA-CA9-MYC (pPNL6), clone 9 A + B (human, UniProt P32781 19-87 (Saccharomyces cerevisiae entry)).
T14 construct: not shown: HA tag; MYC tag
The test is described as above.

Test [15] deals with T15, hCA-IX PG domain fragment #11 (aa 37-71) displayed on yeast as Aga2-HA-CA9-MYC (pPNL6), clone 11 A + B (human, UniProt P32781 19-87 (Saccharomyces cerevisiae entry)).
T15 construct: not shown: HA tag; MYC tag
The description is as above.

For test [16], the target named is T16, hCA-IX PG domain fragment #12 (aa 67-111) displayed on yeast as Aga2-HA-CA9-MYC (pPNL6), clone 12 A + B (human, UniProt P32781 19-87 (Saccharomyces cerevisiae entry)).
T16 construct: not shown: HA tag; MYC tag
The test is described as above.

In test [17] the target is T17, hCA-IX PG domain fragment #13 (aa 107-140) displayed on yeast as Aga2-HA-CA9-MYC (pPNL6), clone 13 A + B (human, UniProt P32781 19-87 (Saccharomyces cerevisiae entry)).
T17 construct: not shown: HA tag; MYC tag
Described as above.

Test [18] deals with T18, hCA-IX PG domain fragment #14 (aa 37-140) displayed on yeast as Aga2-HA-CA9-MYC (pPNL6), clone 14 A + B (human, UniProt P32781 19-87 (Saccharomyces cerevisiae entry)).
T18 construct: not shown: HA tag; MYC tag
The test is described as above.

Test [19] concerns the target T19, dimeric CA-IX extracellular domain (ECD) from mouse (mouse, UniProt Q8VHB5 32-390).
T19 construct: extracellular domain
In words: SPR, antibody captured by anti-human Fc, specific binding yes/no.

Test [20] has as its target hCA-IX fragment 8 (aa 38-414, +PG+CA+) displayed on yeast as Aga2-HA-CA9-MYC (pPNL6), clone 8B (human, UniProt P32781 19-87; Q16790 38-414). In words: YSD whole yeast cell ELISA, native, normalised to anti-MYC; native fragment on yeast (Table 7).

T5 sequence (Q8VHB5 32-389 limits assumed): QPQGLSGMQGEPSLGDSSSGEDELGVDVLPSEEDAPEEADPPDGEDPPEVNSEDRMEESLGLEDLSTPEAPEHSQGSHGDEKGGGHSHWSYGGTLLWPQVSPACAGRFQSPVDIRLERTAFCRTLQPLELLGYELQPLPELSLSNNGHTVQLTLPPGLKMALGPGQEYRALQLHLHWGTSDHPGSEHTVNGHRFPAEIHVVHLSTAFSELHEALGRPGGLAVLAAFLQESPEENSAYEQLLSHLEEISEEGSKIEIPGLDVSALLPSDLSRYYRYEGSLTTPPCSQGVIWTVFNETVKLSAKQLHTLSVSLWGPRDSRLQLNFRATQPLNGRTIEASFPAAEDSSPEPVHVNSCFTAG
T3 sequence (O43570 25-291 limits assumed): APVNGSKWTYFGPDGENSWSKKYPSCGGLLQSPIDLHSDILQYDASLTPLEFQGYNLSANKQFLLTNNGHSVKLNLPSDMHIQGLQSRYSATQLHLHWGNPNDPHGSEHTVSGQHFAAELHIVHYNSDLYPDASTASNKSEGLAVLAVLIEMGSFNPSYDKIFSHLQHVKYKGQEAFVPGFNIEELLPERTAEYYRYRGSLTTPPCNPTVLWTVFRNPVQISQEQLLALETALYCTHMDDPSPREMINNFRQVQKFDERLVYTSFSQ
T4 sequence (Q9ULX7 16-290 limits assumed): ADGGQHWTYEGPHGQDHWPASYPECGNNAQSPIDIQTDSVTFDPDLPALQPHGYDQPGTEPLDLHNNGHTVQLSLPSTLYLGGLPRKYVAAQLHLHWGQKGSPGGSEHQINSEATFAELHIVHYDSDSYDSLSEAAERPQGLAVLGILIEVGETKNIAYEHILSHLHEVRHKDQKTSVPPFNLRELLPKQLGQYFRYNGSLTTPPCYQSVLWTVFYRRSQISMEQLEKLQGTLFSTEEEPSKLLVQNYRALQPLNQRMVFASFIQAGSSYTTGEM
T2 sequence (P22748 19-283 limits assumed): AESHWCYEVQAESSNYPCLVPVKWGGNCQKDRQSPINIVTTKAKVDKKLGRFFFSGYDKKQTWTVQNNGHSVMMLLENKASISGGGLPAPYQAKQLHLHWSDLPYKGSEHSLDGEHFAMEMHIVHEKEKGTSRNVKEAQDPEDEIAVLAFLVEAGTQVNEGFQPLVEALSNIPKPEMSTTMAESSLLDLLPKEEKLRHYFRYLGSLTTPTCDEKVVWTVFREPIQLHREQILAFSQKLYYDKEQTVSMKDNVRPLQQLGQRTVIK
T19 sequence (Q8VHB5 32-390): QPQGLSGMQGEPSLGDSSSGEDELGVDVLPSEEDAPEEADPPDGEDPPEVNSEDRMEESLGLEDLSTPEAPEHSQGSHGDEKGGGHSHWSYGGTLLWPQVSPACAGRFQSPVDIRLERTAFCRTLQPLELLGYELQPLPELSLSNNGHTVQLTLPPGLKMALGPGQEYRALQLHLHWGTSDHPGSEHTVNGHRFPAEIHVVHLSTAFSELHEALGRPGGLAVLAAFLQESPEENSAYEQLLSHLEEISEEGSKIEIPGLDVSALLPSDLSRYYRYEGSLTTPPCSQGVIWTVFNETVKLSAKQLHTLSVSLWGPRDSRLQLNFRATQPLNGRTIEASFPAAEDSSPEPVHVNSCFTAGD
T10 sequence (P32781 19-87 limits assumed): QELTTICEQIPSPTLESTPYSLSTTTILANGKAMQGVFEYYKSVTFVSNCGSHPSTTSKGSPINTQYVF
T9 sequence (P32781 19-87 limits assumed): as above
T8 sequence (P32781 19-87 limits assumed): as above
T18 sequence (P32781 19-87 limits assumed, chain 1 of 2): as the sequence (P32781 19-87 limits assumed) above
T18 sequence (chain (part 2 of 2), as listed by the source limits assumed, chain 2 of 2): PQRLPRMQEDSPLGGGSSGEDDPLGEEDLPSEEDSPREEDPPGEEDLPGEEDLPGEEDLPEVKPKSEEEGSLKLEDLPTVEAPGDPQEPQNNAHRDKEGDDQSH
Sequence of hCA-IX fragment 8 (aa 38-414, +PG+CA+) displayed on yeast as Aga2-HA-CA9-MYC (pPNL6), clone 8B (P32781 19-87 limits assumed, chain 1 of 2, other chains not shown): as the sequence (P32781 19-87 limits assumed) above
T13 sequence (P32781 19-87 limits assumed): as above
T14 sequence (P32781 19-87 limits assumed): as above
T15 sequence (P32781 19-87 limits assumed, chain 1 of 2): as the sequence (P32781 19-87 limits assumed) above
T15 sequence (chain (part 2 of 2), as listed by the source limits assumed, chain 2 of 2): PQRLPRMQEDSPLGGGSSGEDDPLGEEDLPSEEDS
T7 sequence (P32781 19-87 limits assumed): as the sequence (P32781 19-87 limits assumed) above
T6 sequence (P32781 19-87 limits assumed): as above
T12 sequence (P32781 19-87 limits assumed): as above
T17 sequence (P32781 19-87 limits assumed, chain 1 of 2): as the sequence (P32781 19-87 limits assumed) above
T17 sequence (chain (part 2 of 2), as listed by the source limits assumed, chain 2 of 2): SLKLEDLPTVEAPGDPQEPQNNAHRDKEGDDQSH
T11 sequence (P32781 19-87 limits assumed): as the sequence (P32781 19-87 limits assumed) above
T1 sequence (P32781 19-87 limits assumed, chain 1 of 2, other chains not shown): as the sequence (P32781 19-87 limits assumed) above
T16 sequence (P32781 19-87 limits assumed, chain 1 of 2): as the sequence (P32781 19-87 limits assumed) above
T16 sequence (chain (part 2 of 2), as listed by the source limits assumed, chain 2 of 2): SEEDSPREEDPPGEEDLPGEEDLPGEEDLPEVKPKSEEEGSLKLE

B1: c2C7 (chimeric 2C7, human IgG1 / human kappa 1) (antibody, V domains shown)
VH: QVQLQQSGPELVKPGASVRISCKASGFTFTSCYIHWMKQRPGQGLEWIGWIYPGNGNTKYNEIFKGRATLTTDKSSSTAYMQLSSLTSEDSAVYFCARGDTTANTMDYWGQGTSVTVSS
VL: DIQMTQSPASLSASVGETVTITCRASGNIHNYLAWYQQKQGKSPQLLVYNTITLADGVPSRFSGSGSGTQYSLKINSLQPEDFGSYYCQHFWNIPFTFGAGTKLELKR
notes: Expressed in CHO cells
As for B1, the binding result in [1] is “no binding”; in [2] it was “no binding (tested: 100 nM)”; in test [3], “no binding (tested: 100 nM)”; in test [4] it was “no binding (tested: 100 nM)”; in [5] it was “no binding (tested: 100 nM)”; in test [6], “no binding”. Besides, the binding result in test [7], in test [8], in test [9], in test [10], in test [11] and in test [12] was “no binding” in each case. Moreover, the binding result in [13], in test [14], in test [15], in [16], in test [17] and in [18] was “no binding” in each case. For the same molecule, the binding result in test [19] is “no binding”; in [20], “binds”.

The values above are taken from US20180186893A1 (NATIONAL RESEARCH COUNCIL OF CANADA, published 2018).
